These results are taken from patent US20200231668A1 (INTRINSIC LIFESCIENCES, published 2020).

The target in experiment [1] is T1, recombinant human erythroferrone (ERFE) (human, UniProt Q4G0M1 29-354).
T1 construct: Secreted from transfected HEK293F cells and purified from the supernatant; also called human ERFE; hERFE
T1 sequence: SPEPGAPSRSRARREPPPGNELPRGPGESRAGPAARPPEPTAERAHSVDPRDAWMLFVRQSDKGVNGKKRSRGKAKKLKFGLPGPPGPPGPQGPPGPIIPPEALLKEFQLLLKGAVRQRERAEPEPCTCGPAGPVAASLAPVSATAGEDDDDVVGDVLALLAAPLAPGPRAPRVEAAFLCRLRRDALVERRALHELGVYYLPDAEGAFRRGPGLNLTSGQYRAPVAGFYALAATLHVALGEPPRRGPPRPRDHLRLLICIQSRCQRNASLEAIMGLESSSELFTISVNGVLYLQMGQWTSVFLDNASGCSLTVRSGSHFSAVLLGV
Briefly: sandwich ELISA, biotinylated detection antibody (also used as coating antibody); coating antibodies 7H4, 17A5, 4C1. (ELISA stands for enzyme-linked immunosorbent assay.)

Experiment [2] deals with T1, recombinant human erythroferrone (ERFE). Briefly: sandwich ELISA, biotinylated detection antibody; coating antibodies 7H4, 17A5, 4C1.

B1: monoclonal antibody 17A5 (ATCC Accession Number PTA-123883) (antibody, mouse IgG1, kappa, V domains shown)
VH: QVQLQQPGSVLVRPGASVKLSCKASGYTFTSYWMHWAKQRPGQGLEWIGEIHPKSGDTNHNEKFKGKATLTVDTSSNTAYVDLSSLTSEDSAVYYCAREGITTVGFDLWGAGTTVTVSS
VL: QIVLTQSPAIMSASPGQKVTLTCSASSSVSYMNWVQQKSGTSPKRWIYDTSKLASGVPARFSGSGSGTSYSLTISSVEAEDAATYYCQQWSSHPYTFGGGTKLEIKR
notes: Mouse IgG1 from hybridoma; Biotinylated when used as detection antibody
Turning to B1, in experiment [1], the binding result is recorded as “binds”.

B2: monoclonal antibody 9B12 (ATCC Accession Number PTA-123882) (antibody, mouse IgG1, kappa, V domains shown)
VH: QVQLQQSGPELVKPGASVRISCKASGYTFTSYYIHWVKQRPGQGLEWIAWIYPGNVNTEYNEKFKGKATLTADESSSTAYMQLSSLTSEDSAVFFCAREGITTNALDYWGQGTSVTVSS
VL: DIQMTQTTSSLSASLGDRVTISCRASQDISNYLNWYQQKPDGTVKLLIYYTSRLYSGVPSRFSGNGSGSDYSLTISNLEQEDIATYFCQQGHTLWTFGGGTKLEIKR
notes: as for B1
For the molecule B2, the binding result in experiment [2] is “binds”.
